Results as given in US20140087995A1 (published 2014).
Numbered stars: 1 amine (or outer) side, 2 acyl side, 3 side chain; on linkers, the order of the positions; unused ones are H or OH. Bridge positions count the residues as written; N and C are the ends. Side chains are listed from the residue outwards. Ends that are not written are not given here. * marks the point of attachment. C20 diacid = O=C(O)CCCCCCCCCCCCCCCCCCC(=O)*; γGlu = O=C(O)[C@H](CCC(=O)[*:2])N[*:1]

B1: N^ε1-[(4S)-4-carboxy-4-[[(4S)-4-carboxy-4-(19-carboxynonadecanoylamino)butanoyl]amino]butanoyl]-[Glu14,Arg17,Pro21,Pro27,His34]-h-amylin (peptide)
peptide: K([γGlu-γGlu-C20 diacid])CNTATCATQRLAEFLRHSSPNFGAIPSSTNVGHNTY-NH2
modifications: disulfide 2-7; N-terminus assumed
SMILES: CC[C@H](C)[C@H](NC(=O)[C@H](C)NC(=O)CNC(=O)[C@H](Cc1ccccc1)NC(=O)[C@H](CC(N)=O)NC(=O)[C@@H]1CCCN1C(=O)[C@H](CO)NC(=O)[C@H](CO)NC(=O)[C@H](Cc1c[nH]cn1)NC(=O)[C@H](CCCNC(=N)N)NC(=O)[C@H](CC(C)C)NC(=O)[C@H](Cc1ccccc1)NC(=O)[C@H](CCC(=O)O)NC(=O)[C@H](C)NC(=O)[C@H](CC(C)C)NC(=O)[C@H](CCCNC(=N)N)NC(=O)[C@H](CCC(N)=O)NC(=O)[C@@H](NC(=O)[C@H](C)NC(=O)[C@@H]1CSSC[C@H](NC(=O)[C@@H](N)CCCCNC(=O)CC[C@H](NC(=O)CC[C@H](NC(=O)CCCCCCCCCCCCCCCCCCC(=O)O)C(=O)O)C(=O)O)C(=O)N[C@@H](CC(N)=O)C(=O)N[C@@H]([C@@H](C)O)C(=O)N[C@@H](C)C(=O)N[C@@H]([C@@H](C)O)C(=O)N1)[C@@H](C)O)C(=O)N1CCC[C@H]1C(=O)N[C@@H](CO)C(=O)N[C@@H](CO)C(=O)N[C@H](C(=O)N[C@@H](CC(N)=O)C(=O)N[C@H](C(=O)NCC(=O)N[C@@H](Cc1c[nH]cn1)C(=O)N[C@@H](CC(N)=O)C(=O)N[C@H](C(=O)N[C@@H](Cc1ccc(O)cc1)C(N)=O)[C@@H](C)O)C(C)C)[C@@H](C)O
notes: also called 14E, 17R, 21P, 27P, 34H
B2: N^ε1-[(4S)-4-carboxy-4-[[(4S)-4-carboxy-4-(19-carboxynonadecanoylamino)butanoyl]amino]butanoyl]-[Glu14,Arg17,Pro21,Pro27,Pro34,Arg35]-h-amylin (peptide)
peptide: K([γGlu-γGlu-C20 diacid])CNTATCATQRLAEFLRHSSPNFGAIPSSTNVGPRTY-NH2
modifications: disulfide 2-7; N-terminus assumed
SMILES: CC[C@H](C)[C@H](NC(=O)[C@H](C)NC(=O)CNC(=O)[C@H](Cc1ccccc1)NC(=O)[C@H](CC(N)=O)NC(=O)[C@@H]1CCCN1C(=O)[C@H](CO)NC(=O)[C@H](CO)NC(=O)[C@H](Cc1c[nH]cn1)NC(=O)[C@H](CCCNC(=N)N)NC(=O)[C@H](CC(C)C)NC(=O)[C@H](Cc1ccccc1)NC(=O)[C@H](CCC(=O)O)NC(=O)[C@H](C)NC(=O)[C@H](CC(C)C)NC(=O)[C@H](CCCNC(=N)N)NC(=O)[C@H](CCC(N)=O)NC(=O)[C@@H](NC(=O)[C@H](C)NC(=O)[C@@H]1CSSC[C@H](NC(=O)[C@@H](N)CCCCNC(=O)CC[C@H](NC(=O)CC[C@H](NC(=O)CCCCCCCCCCCCCCCCCCC(=O)O)C(=O)O)C(=O)O)C(=O)N[C@@H](CC(N)=O)C(=O)N[C@@H]([C@@H](C)O)C(=O)N[C@@H](C)C(=O)N[C@@H]([C@@H](C)O)C(=O)N1)[C@@H](C)O)C(=O)N1CCC[C@H]1C(=O)N[C@@H](CO)C(=O)N[C@@H](CO)C(=O)N[C@H](C(=O)N[C@@H](CC(N)=O)C(=O)N[C@H](C(=O)NCC(=O)N1CCC[C@H]1C(=O)N[C@@H](CCCNC(=N)N)C(=O)N[C@H](C(=O)N[C@@H](Cc1ccc(O)cc1)C(N)=O)[C@@H](C)O)C(C)C)[C@@H](C)O
notes: also called 14E, 17R, 21P, 27P, 34P, 35R
B3: N^ε1-[(4S)-4-carboxy-4-[[(4S)-4-carboxy-4-(19-carboxynonadecanoylamino)butanoyl]amino]butanoyl]-[Glu14,Arg17,Pro21,Pro27,Pro34,Glu35]-h-amylin (peptide)
peptide: K([γGlu-γGlu-C20 diacid])CNTATCATQRLAEFLRHSSPNFGAIPSSTNVGPETY-NH2
modifications: disulfide 2-7; N-terminus assumed
SMILES: CC[C@H](C)[C@H](NC(=O)[C@H](C)NC(=O)CNC(=O)[C@H](Cc1ccccc1)NC(=O)[C@H](CC(N)=O)NC(=O)[C@@H]1CCCN1C(=O)[C@H](CO)NC(=O)[C@H](CO)NC(=O)[C@H](Cc1c[nH]cn1)NC(=O)[C@H](CCCNC(=N)N)NC(=O)[C@H](CC(C)C)NC(=O)[C@H](Cc1ccccc1)NC(=O)[C@H](CCC(=O)O)NC(=O)[C@H](C)NC(=O)[C@H](CC(C)C)NC(=O)[C@H](CCCNC(=N)N)NC(=O)[C@H](CCC(N)=O)NC(=O)[C@@H](NC(=O)[C@H](C)NC(=O)[C@@H]1CSSC[C@H](NC(=O)[C@@H](N)CCCCNC(=O)CC[C@H](NC(=O)CC[C@H](NC(=O)CCCCCCCCCCCCCCCCCCC(=O)O)C(=O)O)C(=O)O)C(=O)N[C@@H](CC(N)=O)C(=O)N[C@@H]([C@@H](C)O)C(=O)N[C@@H](C)C(=O)N[C@@H]([C@@H](C)O)C(=O)N1)[C@@H](C)O)C(=O)N1CCC[C@H]1C(=O)N[C@@H](CO)C(=O)N[C@@H](CO)C(=O)N[C@H](C(=O)N[C@@H](CC(N)=O)C(=O)N[C@H](C(=O)NCC(=O)N1CCC[C@H]1C(=O)N[C@@H](CCC(=O)O)C(=O)N[C@H](C(=O)N[C@@H](Cc1ccc(O)cc1)C(N)=O)[C@@H](C)O)C(C)C)[C@@H](C)O
notes: also called 14E, 17R, 21P, 27P, 34P, 35E
B4: N^ε1-[(4S)-4-carboxy-4-[[(4S)-4-carboxy-4-(19-carboxynonadecanoylamino)butanoyl]amino]butanoyl]-[Glu14,Arg17,Pro21,Pro27,Pro37]-h-amylin (peptide)
peptide: K([γGlu-γGlu-C20 diacid])CNTATCATQRLAEFLRHSSPNFGAIPSSTNVGSNTP-NH2
modifications: disulfide 2-7; N-terminus assumed
SMILES: CC[C@H](C)[C@H](NC(=O)[C@H](C)NC(=O)CNC(=O)[C@H](Cc1ccccc1)NC(=O)[C@H](CC(N)=O)NC(=O)[C@@H]1CCCN1C(=O)[C@H](CO)NC(=O)[C@H](CO)NC(=O)[C@H](Cc1c[nH]cn1)NC(=O)[C@H](CCCNC(=N)N)NC(=O)[C@H](CC(C)C)NC(=O)[C@H](Cc1ccccc1)NC(=O)[C@H](CCC(=O)O)NC(=O)[C@H](C)NC(=O)[C@H](CC(C)C)NC(=O)[C@H](CCCNC(=N)N)NC(=O)[C@H](CCC(N)=O)NC(=O)[C@@H](NC(=O)[C@H](C)NC(=O)[C@@H]1CSSC[C@H](NC(=O)[C@@H](N)CCCCNC(=O)CC[C@H](NC(=O)CC[C@H](NC(=O)CCCCCCCCCCCCCCCCCCC(=O)O)C(=O)O)C(=O)O)C(=O)N[C@@H](CC(N)=O)C(=O)N[C@@H]([C@@H](C)O)C(=O)N[C@@H](C)C(=O)N[C@@H]([C@@H](C)O)C(=O)N1)[C@@H](C)O)C(=O)N1CCC[C@H]1C(=O)N[C@@H](CO)C(=O)N[C@@H](CO)C(=O)N[C@H](C(=O)N[C@@H](CC(N)=O)C(=O)N[C@H](C(=O)NCC(=O)N[C@@H](CO)C(=O)N[C@@H](CC(N)=O)C(=O)N[C@H](C(=O)N1CCC[C@H]1C(N)=O)[C@@H](C)O)C(C)C)[C@@H](C)O
notes: also called 14E, 17R, 21P, 27P, 37P
B5: N^ε1-[(4S)-4-carboxy-4-[[(4S)-4-carboxy-4-(19-carboxynonadecanoylamino)butanoyl]amino]butanoyl]-[Glu14,Arg17,Pro21,Pro31,Pro34,Glu35]-h-amylin (peptide)
peptide: K([γGlu-γGlu-C20 diacid])CNTATCATQRLAEFLRHSSPNFGAILSSTPVGPETY-NH2
modifications: disulfide 2-7 (inferred)
notes: also called 14E, 17R, 21P, 31P, 34P, 35E
B6: N^ε1-[(4S)-4-carboxy-4-[[(4S)-4-carboxy-4-(19-carboxynonadecanoylamino)butanoyl]amino]butanoyl]-[His14,Arg17,Pro21,Pro27]-h-amylin (peptide)
peptide: K([γGlu-γGlu-C20 diacid])CNTATCATQRLAHFLRHSSPNFGAIPSSTNVGSNTY-NH2
modifications: disulfide 2-7; N-terminus assumed
SMILES: CC[C@H](C)[C@H](NC(=O)[C@H](C)NC(=O)CNC(=O)[C@H](Cc1ccccc1)NC(=O)[C@H](CC(N)=O)NC(=O)[C@@H]1CCCN1C(=O)[C@H](CO)NC(=O)[C@H](CO)NC(=O)[C@H](Cc1c[nH]cn1)NC(=O)[C@H](CCCNC(=N)N)NC(=O)[C@H](CC(C)C)NC(=O)[C@H](Cc1ccccc1)NC(=O)[C@H](Cc1c[nH]cn1)NC(=O)[C@H](C)NC(=O)[C@H](CC(C)C)NC(=O)[C@H](CCCNC(=N)N)NC(=O)[C@H](CCC(N)=O)NC(=O)[C@@H](NC(=O)[C@H](C)NC(=O)[C@@H]1CSSC[C@H](NC(=O)[C@@H](N)CCCCNC(=O)CC[C@H](NC(=O)CC[C@H](NC(=O)CCCCCCCCCCCCCCCCCCC(=O)O)C(=O)O)C(=O)O)C(=O)N[C@@H](CC(N)=O)C(=O)N[C@@H]([C@@H](C)O)C(=O)N[C@@H](C)C(=O)N[C@@H]([C@@H](C)O)C(=O)N1)[C@@H](C)O)C(=O)N1CCC[C@H]1C(=O)N[C@@H](CO)C(=O)N[C@@H](CO)C(=O)N[C@H](C(=O)N[C@@H](CC(N)=O)C(=O)N[C@H](C(=O)NCC(=O)N[C@@H](CO)C(=O)N[C@@H](CC(N)=O)C(=O)N[C@H](C(=O)N[C@@H](Cc1ccc(O)cc1)C(N)=O)[C@@H](C)O)C(C)C)[C@@H](C)O
notes: also called 14H, 17R, 21P, 27P
B7: N^ε1-[(4S)-4-carboxy-4-[[(4S)-4-carboxy-4-(19-carboxynonadecanoylamino)butanoyl]amino]butanoyl]-[Ser14,Arg17,Pro21,Pro27,Pro34,Glu35]-h-amylin (peptide)
peptide: K([γGlu-γGlu-C20 diacid])CNTATCATQRLASFLRHSSPNFGAIPSSTNVGPETY-NH2
modifications: disulfide 2-7; N-terminus assumed
SMILES: CC[C@H](C)[C@H](NC(=O)[C@H](C)NC(=O)CNC(=O)[C@H](Cc1ccccc1)NC(=O)[C@H](CC(N)=O)NC(=O)[C@@H]1CCCN1C(=O)[C@H](CO)NC(=O)[C@H](CO)NC(=O)[C@H](Cc1c[nH]cn1)NC(=O)[C@H](CCCNC(=N)N)NC(=O)[C@H](CC(C)C)NC(=O)[C@H](Cc1ccccc1)NC(=O)[C@H](CO)NC(=O)[C@H](C)NC(=O)[C@H](CC(C)C)NC(=O)[C@H](CCCNC(=N)N)NC(=O)[C@H](CCC(N)=O)NC(=O)[C@@H](NC(=O)[C@H](C)NC(=O)[C@@H]1CSSC[C@H](NC(=O)[C@@H](N)CCCCNC(=O)CC[C@H](NC(=O)CC[C@H](NC(=O)CCCCCCCCCCCCCCCCCCC(=O)O)C(=O)O)C(=O)O)C(=O)N[C@@H](CC(N)=O)C(=O)N[C@@H]([C@@H](C)O)C(=O)N[C@@H](C)C(=O)N[C@@H]([C@@H](C)O)C(=O)N1)[C@@H](C)O)C(=O)N1CCC[C@H]1C(=O)N[C@@H](CO)C(=O)N[C@@H](CO)C(=O)N[C@H](C(=O)N[C@@H](CC(N)=O)C(=O)N[C@H](C(=O)NCC(=O)N1CCC[C@H]1C(=O)N[C@@H](CCC(=O)O)C(=O)N[C@H](C(=O)N[C@@H](Cc1ccc(O)cc1)C(N)=O)[C@@H](C)O)C(C)C)[C@@H](C)O
notes: also called 14S, 17R, 21P, 27P, 34P, 35E

These binders were tested against T1, human amylin receptor (human, UniProt P30988 25-474; O60896 24-148, limits assumed) (assay: SPA competition binding, displacement of 125I-rat amylin from membranes with human amylin 3(a) receptor (Assay V)).
T1 construct: whole, on cells; Calcitonin receptor plus RAMP-3 gives the amylin 3(a) receptor; membranes of Amylin 3(a)/CRE-luc cells were used; also called hAmylin-R; hAmylinR
T1 sequence (looked up) 1: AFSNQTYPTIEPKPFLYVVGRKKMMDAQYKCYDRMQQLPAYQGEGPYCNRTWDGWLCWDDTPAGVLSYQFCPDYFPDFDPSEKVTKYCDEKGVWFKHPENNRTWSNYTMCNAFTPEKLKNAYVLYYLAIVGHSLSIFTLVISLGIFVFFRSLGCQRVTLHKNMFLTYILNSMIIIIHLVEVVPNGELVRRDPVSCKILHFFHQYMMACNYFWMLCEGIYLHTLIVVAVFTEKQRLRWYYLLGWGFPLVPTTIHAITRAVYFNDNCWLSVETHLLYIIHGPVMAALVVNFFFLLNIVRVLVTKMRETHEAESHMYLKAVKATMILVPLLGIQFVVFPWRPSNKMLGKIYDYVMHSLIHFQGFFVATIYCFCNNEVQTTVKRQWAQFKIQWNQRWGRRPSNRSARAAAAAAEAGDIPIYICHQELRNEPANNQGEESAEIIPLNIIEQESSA
T1 sequence (looked up) 2: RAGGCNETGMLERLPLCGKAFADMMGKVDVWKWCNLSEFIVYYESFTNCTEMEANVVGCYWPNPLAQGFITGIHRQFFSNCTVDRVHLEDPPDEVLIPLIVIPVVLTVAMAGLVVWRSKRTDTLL
Method in brief: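 SPA beads + BHK amylin 3(a)/CRE-luc membranes, 35 ng/μL final; buffer 50 mM Hepes pH 7.4, 1 mM CaCl2, 5 mM MgCl₂, 0.1% OA, 0.02% Tween20. 120 min, 25° C, shaken; scintillation count. IC₅₀ by one-site binding competition fit, taken as receptor affinity.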
B1 gave an IC50 of 0.633 nM. Work on B2 yielded an IC50 of 0.326 nM. Binder B3 has an IC50 of 0.121 nM. B4 was tested, and the IC50 was 0.264 nM. Binder B5 has an IC50 of 0.069 nM. B6 showed an IC50 of 0.179 nM. In the case of B7, the IC50 is reported as 0.076 nM.
